From patent publication US20220064276A1 (SCHOLAR ROCK, published 2022)
Like-named read-outs stand apart in the source and are kept apart here. Each block holds one binder with its values, some of them ahead of it.

Columns and labels:
[1] = target: T1, LTBP-proTGFβ1: transfected human proTGFβ1 presented by endogenous LTBP1/3 of LN229 cells (human); experiment: cell-based or functional assay
[2] = target: T2, mouse LTBP1-proTGFβ1 complex (mouse, UniProt Q8CG19 339-1712; P04202 30-390); experiment: cell-based or functional assay
[3] = target: T3, mouse LTBP3-proTGFβ1 complex (mouse, UniProt Q61810 41-1245; P04202 30-390, limits assumed); experiment: Octet BLI, IgG captured
T3 construct: Exemplary entries; also called Mo LTBP3-proTGFβ1; Murine LTBP3 proTGFb1
Experimental: (§1) Binding affinities of the optimized antibodies were measured by Octet against human LTBP1-proTGFβ1, human LTBP3-proTGFβ1, mouse LTBP1-proTGFβ1, mouse LTBP3-proTGFβ1, and GARP-proTGFβ1 complexes, essentially as described in Example 6. […] The antigens were allowed to associate for 3 minutes followed by a 5-minute dissociation. Kinetics buffer (ForteBio®) was used throughout the experiment, and KD was determined using a 1:1 fitting model for each antibody antigen pair.

[4] = target: T4, human LTBP1-proTGFβ1 complex (human, UniProt Q14766 347-1721; P01137 30-390); experiment: Octet BLI, IgG captured
T4 construct: Large latent complex: one presenting molecule disulfide-linked to a proTGFβ1 dimer; also called Hu LTBP1-proTGFβ1; huLTBP1 proTGFβ1
Experimental: as §1

[5] = target: T2, mouse LTBP1-proTGFβ1 complex; experiment: Octet BLI, IgG captured
Experimental: as §1

[6] = target: T5, human LTBP3-proTGFβ1 complex (human, UniProt Q9NS15 44-1303; P01137 30-390, limits assumed); experiment: Octet BLI, IgG captured
T5 construct: Exemplary entries; also called Hu LTBP3-proTGFβ1; huLTBP3 proTGFb1
Experimental: as §1

[7] = target: T6, human GARP-proTGFβ1 complex (human, UniProt Q14392 18-627; P01137 30-390, limits assumed); experiment: Octet (bio-layer interferometry), response at 200 nM antigen; 0.1 nm cutoff designates meaningful binding
T6 construct: Exemplary entries; also called Hu GARP-proTGFβ1; huGARP proTGFb1
Experimental: This experiment was performed at 200, 100, 50, and 25 nM human GARP proTGFb1 and human LTBP1 proTGFbl. […] Surface plasmon resonance (SPR)-based assays

[8] = target: T1, LTBP-proTGFβ1: transfected human …; experiment: cell-based or functional assay; remark: listed apart in the source
[9] = target: T2, mouse LTBP1-proTGFβ1 complex; experiment: cell-based or functional assay; remark: listed apart in the source
[10] = target: T3, mouse LTBP3-proTGFβ1 complex; experiment: Octet BLI, IgG captured; remark: listed apart in the source
Experimental: (§2) LTBP complex-specific antibodies from the first round of affinity maturation/optimization (SR-AB14, SR-AB16, SR-AB17, SR-AB18, SR-AB19) were selected for a second round of affinity maturation/optimization (i.e., CDR-H3 mutagenesis as described herein) and particular progeny antibodies (SR-AB20, SR-AB21, SR-AB22, SR-AB23, SR-AB24, SR-AB25, SR-AB26, SR-AB27, SR-AB28, and SR-AB29) were assessed for their ability to bind various proTGFβ1 constructs. Binding affinities of the optimized antibodies were measured by Octet against human LTBP1-proTGFβ1, human LTBP3-proTGFbl, mouse LTBP1-proTGFβ1, mouse LTBP3-proTGFbl, and GARP-proTGFβ1 complexes, essentially as described in Example 6. […] The antigens were allowed to associate for 3 minutes followed by a 5-minute dissociation. Kinetics buffer (ForteBio®) was used throughout the experiment, and KD was determined using a 1:1 fitting model for each antibody antigen pair.

[11] = target: T4, human LTBP1-proTGFβ1 complex; experiment: Octet BLI, IgG captured; remark: listed apart in the source
Experimental: as §2

[12] = target: T2, mouse LTBP1-proTGFβ1 complex; experiment: Octet BLI, IgG captured; remark: listed apart in the source
Experimental: as §2

[13] = target: T4, human LTBP1-proTGFβ1 complex; experiment: SPR Biacore 8K, Fab over captured antigen
Experimental: (§3) A Biacore 8K system was employed to determine the monovalent binding affinity and the kinetic parameters for antigen binding of test antibodies. Association and dissociation kinetics of Fab fragments SR-AB42-HuFab, SR-AB63-HuFab and SR-AB43-HuFab to antigen complexes were measured, and resulting ka, kd and KD are provided below. Briefly, the binding kinetics were evaluated by surface plasmon resonance using Biacore 8K (GE Healthcare). Biotinylated capture antigens were immobilized to the chip (10 nM, ˜200 RU loading). A Biotin CAPture sensor chip was used to capture the biotinylated antigens. […] 0 nM was used as a reference. […] 0 nM was used as a reference. Multi-cycle kinetics was employed where each analyte concentration was injected in a separate cycle and the sensor chip surface was regenerated after each cycle. A11 the assays were carried out in freshly prepared 1× HBS-EP+ buffer (10 mM HEPES, 150 mM NaCl, 3 mM EDTA, 0.05% Tween20, pH 7.4). Data were fit globally to a 1:1 binding model to obtain the kinetic parameters. The sensorgram for 0 nM analyte concentration was used as reference.

[14] = target: T3, mouse LTBP3-proTGFβ1 complex; experiment: SPR Biacore 8K, Fab over captured antigen, Rmax fixed
Experimental: (§4) These experiments were performed using the Biacore 8K using the method “multi-cycle kinetics/affinity using Biotin CAPture kit.”
(§5) Data collection rate was set to 10 Hz and the Biotin CAPture step was performed for 300 seconds with a flow rate of 2 μL/minute. The Biotin CAPture reagent was used after a 1:5 dilution in 1× Biacore running buffer. Biotinylated ligands (the various complexes of TGFβ1) were utilized at a concentration of 10 nM and were immobilized to the sensor chip for 180 seconds with a flow rate of 10 μL/minute. […] Analyte contact time was 120 seconds and the dissociation time was 900 seconds. The regeneration cycle utilized was 120 seconds with a flow rate of 10 μL/minute.
(§6) The evaluation method used was “multi-cycle affinity using capture” and a 1:1 binding model was used. […] Global fits were utilized for every KD determination.

[15] = target: T4, human LTBP1-proTGFβ1 complex; experiment: as above
Experimental: as §4, §5, §6

[16] = target: T7, mouse LRRC33-proTGFβ1 complex (mouse, UniProt Q8BMT4 20-651, limits assumed); experiment: as above
T7 construct: also called MuLRRC33-ProTGFb1; Mu LRRC33-ProTGFβ1
Experimental: as §4, §5, §6

[17] = target: T8, mouse GARP-proTGFβ1 complex (mouse, UniProt G3XA59 18-628; P04202 30-390, limits assumed); experiment: as above
T8 construct: Exemplary entries; also called MuGARP-ProTGFb1; Mu GARP-ProTGFβ1
Experimental: as §4, §5, §6

[18] = target: T6, human GARP-proTGFβ1 complex; experiment: as above
Experimental: as §4, §5, §6

[19] = target: T2, mouse LTBP1-proTGFβ1 complex; experiment: as above
Experimental: as §4, §5, §6

[20] = target: T5, human LTBP3-proTGFβ1 complex; experiment: as above
Experimental: as §4, §5, §6

[21] = target: T9, human LRRC33-proTGFβ1 complex (human, UniProt Q86YC3 19-650; P01137 30-390, limits assumed); experiment: as above
T9 construct: Exemplary entries; also called huLRRC33 proTGFb1; HuLRRC33-ProTGFb1
Experimental: as §4, §5, §6

[22] = target: T3, mouse LTBP3-proTGFβ1 complex; experiment: SPR Biacore 8K, Fab over captured antigen; mean of 2
Experimental: as §3

T4 sequence (Q14766 347-1721 limits assumed, chain 1 of 2): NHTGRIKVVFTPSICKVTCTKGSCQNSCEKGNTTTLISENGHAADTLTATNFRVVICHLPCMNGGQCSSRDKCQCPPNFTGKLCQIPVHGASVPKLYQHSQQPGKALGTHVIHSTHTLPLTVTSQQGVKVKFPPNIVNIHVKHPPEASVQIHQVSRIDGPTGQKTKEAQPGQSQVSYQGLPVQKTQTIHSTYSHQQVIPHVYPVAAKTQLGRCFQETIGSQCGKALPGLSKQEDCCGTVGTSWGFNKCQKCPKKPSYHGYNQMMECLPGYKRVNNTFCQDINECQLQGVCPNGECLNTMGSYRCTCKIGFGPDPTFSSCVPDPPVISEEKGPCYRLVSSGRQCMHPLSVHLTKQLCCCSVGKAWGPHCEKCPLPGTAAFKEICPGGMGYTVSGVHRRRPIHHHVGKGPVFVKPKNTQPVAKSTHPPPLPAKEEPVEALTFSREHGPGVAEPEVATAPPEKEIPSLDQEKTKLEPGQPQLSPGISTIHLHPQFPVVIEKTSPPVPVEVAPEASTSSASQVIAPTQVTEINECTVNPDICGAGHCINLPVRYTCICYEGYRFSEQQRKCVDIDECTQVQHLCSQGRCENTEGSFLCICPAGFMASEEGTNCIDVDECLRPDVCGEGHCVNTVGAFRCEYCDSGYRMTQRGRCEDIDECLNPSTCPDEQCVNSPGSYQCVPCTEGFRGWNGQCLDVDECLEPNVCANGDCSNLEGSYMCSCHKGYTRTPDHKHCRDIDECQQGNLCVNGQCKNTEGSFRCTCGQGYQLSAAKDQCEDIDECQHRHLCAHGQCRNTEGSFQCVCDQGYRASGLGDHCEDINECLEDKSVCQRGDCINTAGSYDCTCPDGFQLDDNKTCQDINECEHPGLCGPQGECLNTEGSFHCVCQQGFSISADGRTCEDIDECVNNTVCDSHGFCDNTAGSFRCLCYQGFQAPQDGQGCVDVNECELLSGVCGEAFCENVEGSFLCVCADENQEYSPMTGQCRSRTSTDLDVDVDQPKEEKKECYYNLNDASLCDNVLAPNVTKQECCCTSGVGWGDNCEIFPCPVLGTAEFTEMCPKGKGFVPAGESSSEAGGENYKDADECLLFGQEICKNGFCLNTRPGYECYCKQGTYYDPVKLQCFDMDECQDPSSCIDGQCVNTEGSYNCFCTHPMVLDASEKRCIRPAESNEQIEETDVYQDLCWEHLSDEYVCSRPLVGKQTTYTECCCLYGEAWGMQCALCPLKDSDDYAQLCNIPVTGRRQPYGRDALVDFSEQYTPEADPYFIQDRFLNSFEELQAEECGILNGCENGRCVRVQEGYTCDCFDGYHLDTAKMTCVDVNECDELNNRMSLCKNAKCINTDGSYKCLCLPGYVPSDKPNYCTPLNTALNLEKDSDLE
T4 sequence (P01137 30-390 limits assumed, chain 2 of 2): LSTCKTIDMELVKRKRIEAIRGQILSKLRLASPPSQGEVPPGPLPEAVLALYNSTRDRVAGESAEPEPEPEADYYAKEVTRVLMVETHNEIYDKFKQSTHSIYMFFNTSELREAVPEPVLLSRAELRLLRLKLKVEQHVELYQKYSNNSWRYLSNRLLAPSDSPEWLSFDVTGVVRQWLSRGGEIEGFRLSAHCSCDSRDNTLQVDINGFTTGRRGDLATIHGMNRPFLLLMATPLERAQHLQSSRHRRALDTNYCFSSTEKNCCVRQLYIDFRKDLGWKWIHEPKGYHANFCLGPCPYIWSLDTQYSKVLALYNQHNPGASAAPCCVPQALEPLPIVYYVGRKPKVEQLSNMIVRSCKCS
T2 sequence (Q8CG19 339-1712 limits assumed, chain 1 of 2): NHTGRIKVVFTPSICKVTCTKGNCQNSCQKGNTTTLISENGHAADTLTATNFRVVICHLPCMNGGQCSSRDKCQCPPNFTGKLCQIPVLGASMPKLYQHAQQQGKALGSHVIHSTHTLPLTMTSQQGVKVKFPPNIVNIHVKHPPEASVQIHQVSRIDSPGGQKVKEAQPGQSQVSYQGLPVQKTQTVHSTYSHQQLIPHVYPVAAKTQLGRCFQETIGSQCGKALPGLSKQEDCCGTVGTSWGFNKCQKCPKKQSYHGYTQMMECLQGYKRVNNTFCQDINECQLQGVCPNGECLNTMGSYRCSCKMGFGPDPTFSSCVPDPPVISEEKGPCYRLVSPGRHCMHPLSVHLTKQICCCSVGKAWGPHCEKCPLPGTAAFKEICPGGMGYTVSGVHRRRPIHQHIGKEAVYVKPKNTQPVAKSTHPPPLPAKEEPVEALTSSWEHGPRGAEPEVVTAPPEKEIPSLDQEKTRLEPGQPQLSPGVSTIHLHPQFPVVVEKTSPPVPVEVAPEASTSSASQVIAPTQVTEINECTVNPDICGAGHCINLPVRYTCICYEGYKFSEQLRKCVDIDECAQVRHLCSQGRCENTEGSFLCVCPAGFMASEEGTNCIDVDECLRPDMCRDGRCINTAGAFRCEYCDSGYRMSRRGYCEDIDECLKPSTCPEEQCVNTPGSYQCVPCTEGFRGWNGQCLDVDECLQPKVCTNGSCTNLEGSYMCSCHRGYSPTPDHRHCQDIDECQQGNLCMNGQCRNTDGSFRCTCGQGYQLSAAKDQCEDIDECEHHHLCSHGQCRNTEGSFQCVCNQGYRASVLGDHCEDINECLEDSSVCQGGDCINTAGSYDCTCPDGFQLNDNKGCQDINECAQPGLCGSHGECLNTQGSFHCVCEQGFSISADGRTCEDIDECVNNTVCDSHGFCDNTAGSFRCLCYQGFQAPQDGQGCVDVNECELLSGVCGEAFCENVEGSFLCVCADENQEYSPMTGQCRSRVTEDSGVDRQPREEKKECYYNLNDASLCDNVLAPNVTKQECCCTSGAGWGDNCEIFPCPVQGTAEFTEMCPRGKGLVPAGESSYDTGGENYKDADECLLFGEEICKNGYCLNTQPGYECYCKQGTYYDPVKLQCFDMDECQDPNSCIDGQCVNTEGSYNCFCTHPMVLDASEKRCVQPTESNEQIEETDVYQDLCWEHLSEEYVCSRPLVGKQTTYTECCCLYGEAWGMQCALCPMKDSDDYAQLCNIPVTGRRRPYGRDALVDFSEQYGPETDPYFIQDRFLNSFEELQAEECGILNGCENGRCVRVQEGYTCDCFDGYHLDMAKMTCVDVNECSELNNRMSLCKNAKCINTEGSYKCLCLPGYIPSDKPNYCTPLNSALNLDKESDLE
T2 sequence (P04202 30-390 limits assumed, chain 2 of 2): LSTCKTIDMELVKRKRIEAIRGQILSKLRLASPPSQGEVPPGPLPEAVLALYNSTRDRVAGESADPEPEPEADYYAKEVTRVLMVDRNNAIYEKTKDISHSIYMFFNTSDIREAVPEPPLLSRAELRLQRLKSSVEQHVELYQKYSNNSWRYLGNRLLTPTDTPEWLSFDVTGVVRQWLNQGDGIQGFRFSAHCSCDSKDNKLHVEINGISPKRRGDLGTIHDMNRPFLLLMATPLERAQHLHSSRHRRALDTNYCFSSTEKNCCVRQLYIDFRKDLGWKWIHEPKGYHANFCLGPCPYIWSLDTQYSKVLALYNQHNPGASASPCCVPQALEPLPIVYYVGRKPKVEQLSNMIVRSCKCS
T3 sequence (Q61810 other isoform, or with tags, fused parts or gaps limits assumed, chain 1 of 2): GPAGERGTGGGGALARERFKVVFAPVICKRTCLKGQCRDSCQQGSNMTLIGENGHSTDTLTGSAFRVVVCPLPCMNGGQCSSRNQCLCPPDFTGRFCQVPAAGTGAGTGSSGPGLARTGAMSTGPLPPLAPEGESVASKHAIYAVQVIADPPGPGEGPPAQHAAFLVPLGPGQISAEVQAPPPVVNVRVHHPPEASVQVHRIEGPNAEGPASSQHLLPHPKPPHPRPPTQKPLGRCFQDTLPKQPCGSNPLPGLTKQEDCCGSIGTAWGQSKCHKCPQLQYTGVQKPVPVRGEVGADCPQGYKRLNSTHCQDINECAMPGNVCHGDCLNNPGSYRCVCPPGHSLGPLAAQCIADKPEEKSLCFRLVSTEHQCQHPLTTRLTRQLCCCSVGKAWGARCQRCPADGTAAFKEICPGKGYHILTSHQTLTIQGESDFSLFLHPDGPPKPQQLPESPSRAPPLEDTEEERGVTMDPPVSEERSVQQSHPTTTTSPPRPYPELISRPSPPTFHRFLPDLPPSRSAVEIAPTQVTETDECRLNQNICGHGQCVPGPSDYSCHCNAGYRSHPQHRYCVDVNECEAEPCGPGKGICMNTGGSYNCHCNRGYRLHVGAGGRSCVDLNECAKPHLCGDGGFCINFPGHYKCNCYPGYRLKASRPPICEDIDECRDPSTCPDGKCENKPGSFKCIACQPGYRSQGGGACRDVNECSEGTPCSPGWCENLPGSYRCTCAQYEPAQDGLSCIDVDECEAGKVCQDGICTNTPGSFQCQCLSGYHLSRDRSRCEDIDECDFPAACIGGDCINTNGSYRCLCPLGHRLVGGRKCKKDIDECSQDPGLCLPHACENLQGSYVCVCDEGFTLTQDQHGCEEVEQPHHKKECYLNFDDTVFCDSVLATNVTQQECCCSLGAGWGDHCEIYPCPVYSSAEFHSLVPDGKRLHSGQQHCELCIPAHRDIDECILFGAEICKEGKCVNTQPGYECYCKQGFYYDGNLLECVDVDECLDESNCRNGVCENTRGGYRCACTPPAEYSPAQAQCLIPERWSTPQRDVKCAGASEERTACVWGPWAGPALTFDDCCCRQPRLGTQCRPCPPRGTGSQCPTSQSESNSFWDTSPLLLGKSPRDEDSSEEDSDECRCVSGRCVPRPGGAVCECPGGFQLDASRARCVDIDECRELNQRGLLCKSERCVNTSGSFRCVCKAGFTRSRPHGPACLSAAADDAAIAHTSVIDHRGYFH
T3 sequence (P04202 30-390 limits assumed, chain 2 of 2): as the sequence (P04202 30-390 limits assumed, chain 2 of 2) above
T1 sequence (P01137 30-390): as the sequence (P01137 30-390 limits assumed, chain 2 of 2) above

IC50, endogenous hLTBP assay (CAGA12 luciferase) [1]: 8.68 nM
IC50, mLTBP1 assay (CAGA12 luciferase) [2]: 0.386 nM
Kd [3]: 3.37 nM
Kd [4]: 0.486 nM
koff [4]: 6.82e-05 s⁻¹
kon [4]: 140000 M⁻¹ s⁻¹
Kd [5]: 0.609 nM
Kd [6]: 0.368 nM
koff [6]: 7.47e-05 s⁻¹
kon [6]: 203000 M⁻¹ s⁻¹
binding result [7]: no binding (tested: 200 nM)
B1: SR-AB62 (antibody, IgG1, V domains shown)
VH: QLQLQESGPGLAKPSETLSLTCTVSGGSIRSSSYYWGWIRQPPGKGLEWIGSISYSATTYYNPSLKSRVTISVDTSKNQFSLKLSSVTAADTAVYYCASDPSYDSAAGMDVWGQGTTVTVSS
VL: DIQMTQSPSSLSASVGDRVTITCRASKVISSYLNWYQQKPGKAPKLLIYYASSLQSGVPSRFSGSGSGTDFTLTISSLQPEDFATYYCQQSNDWPFTFGGGTKVEIK
notes: Cycle 3, lineage SR-AB24

IC50, endogenous hLTBP assay (CAGA12 luciferase) [8]: 4.62 nM
IC50, mLTBP1 assay (CAGA12 luciferase) [9]: 1.39 nM
Kd [10]: 1.56 nM
Kd [11]: 1.88 nM
Kd [12]: 2.43 nM
B2: SR-AB22 (antibody, IgG1, V domains shown)
VH: QVQLVESGGGVVQPGRSLRLSCAASGFTFRSYVMHWVRQAPGKGLEWVAVISHEGSLKYYADSVKGRFTISRDNSKNTLYLQMNSLRAEDTAVYYCAVPRIAARRGGFGYWGQGTLVTVSS
VL: NFMLTQPHSVSESPGKTVTISCTRSSGNIDNNYVQWYQQRPGSSPTTVIYEDNQRPSGVPDRFSGSIDSSSNSASLTISGLKTEDEADYYCQSYDSDNQGVVFGGGTKLTVL
notes: Cycle 2, lineage SR-AB14

Kd [13]: 0.074 nM
koff [13]: 0.000136 s⁻¹
kon [13]: 1.84e+06 M⁻¹ s⁻¹
Kd [14]: 0.4 nM
Kd [15]: 0.217 nM
Kd [16]: 9.16 nM
Kd [17]: 1.95 nM
Kd [18]: 6.5 nM
Kd [19]: 0.198 nM
Kd [20]: 0.33 nM
Kd [21]: 6.66 nM
B3: SR-AB47-HuFab (Fab, V domains shown)
VH: QVQLVESGGGVVQPGRSLRLSCAASGFTFRSYVMHWVRQAPGKGLEWVAVISHEGSGKYYADSVKGRFTISRDNSKNTLYLQMNSLRAEDTAVYYCARPRIAARRGGFGSWGQGTLVTVSS
VL: NFMLTQPHSVSESPGKTVTISCTRSSGNIDYNYVQWYQQRPGSSPTTVIYEDNVRPSGVPDRFSGSIDSSSNSASLTISGLKTEDEADYYCQSYDYDNQAVVFGGGTKLTVL
notes: Human Fab; also called SR-AB47 Fab

Kd [13]: 0.276 nM
koff [13]: 0.000284 s⁻¹
kon [13]: 1.03e+06 M⁻¹ s⁻¹
Kd [22]: 4.43 nM
B4: SR-AB43-HuFab (Fab, V domains shown)
VH: QVQLVESGGGVVQPGRSLRLSCAASGFTFRSYVMHWVRQAPGKGLEWVAVISHEGSLKYYADSVKGRFTISRDNSKNTLYLQMNSLRAEDTAVYYCARPRIAARRGGFGYWGQGTLVTVSS
VL: NFMLTQPHSVSESPGKTVTISCTRSSGNIDYNYVQWYQQRPGSSPTTVIYEDNVRPSGVPDRFSGSIDSSSNSASLTISGLKTEDEADYYCQSYDSDNQRVVFGGGTKLTVL
notes: Human Fab; also called SR-AB43 Fab
